The record followed here is paper doi:10.1101/2022.12.13.520362 (bioRxiv, 2022).

The target of assay [1] is empty procapsid shells of bacteriophage P22 (WT coat protein) (bacteriophage P22, UniProt P26747 1-430). Briefly: co-sedimentation.
The target in assay [2] is bacteriophage P22 coat protein monomers (WT) (bacteriophage P22, UniProt P26747 1-430). Nature of the assay: weak affinity chromatography.

B1: his6-tagged WT scaffolding protein of bacteriophage P22 (gp8) (natural protein, UniProt P26748 1-303, looked up)
chain: MEPTTEIQATEDLTLSGDHAAASADSLVVDNANDNAGQEEGFEIVLKDDETAPKQDPAKNAEFARRRIERKRQRELEQQMEAVKRGELPESLRVNPDLPPQPDINAYLSEEGLAKYDYDNSRALAAFNAANTEWLMKAQDARSNAVAEQGRKTQEFTQQSAQYVEAARKHYDAAEKLNIPDYQEKEDAFMQLVPPAVGADIMRLFPEKSAALMYHLGANPEKARQLLAMDGQSALIELTRLSERLTLKPRGKQISSAPPADQPITGDVSAANKDAIRKQMDAAASKGDVETYRKLKAKLKGIR
On to B1, for which the binding result in assay [1] and in assay [2] was “binds” each time.

B2: his6-tagged L245C scaffolding protein of bacteriophage P22 (natural protein, UniProt P26748 1-303, looked up)
chain: MEPTTEIQATEDLTLSGDHAAASADSLVVDNANDNAGQEEGFEIVLKDDETAPKQDPAKNAEFARRRIERKRQRELEQQMEAVKRGELPESLRVNPDLPPQPDINAYLSEEGLAKYDYDNSRALAAFNAANTEWLMKAQDARSNAVAEQGRKTQEFTQQSAQYVEAARKHYDAAEKLNIPDYQEKEDAFMQLVPPAVGADIMRLFPEKSAALMYHLGANPEKARQLLAMDGQSALIELTRLSERCTLKPRGKQISSAPPADQPITGDVSAANKDAIRKQMDAAASKGDVETYRKLKAKLKGIR
Regarding B2, the binding result in assay [1] is “binds”.
